The target in assay [1] is T1, full-length human LEPR on IMR-32/STAT3-Luc/hLEPR cells (human, UniProt P48357 22-1165).
T1 sequence (looked up): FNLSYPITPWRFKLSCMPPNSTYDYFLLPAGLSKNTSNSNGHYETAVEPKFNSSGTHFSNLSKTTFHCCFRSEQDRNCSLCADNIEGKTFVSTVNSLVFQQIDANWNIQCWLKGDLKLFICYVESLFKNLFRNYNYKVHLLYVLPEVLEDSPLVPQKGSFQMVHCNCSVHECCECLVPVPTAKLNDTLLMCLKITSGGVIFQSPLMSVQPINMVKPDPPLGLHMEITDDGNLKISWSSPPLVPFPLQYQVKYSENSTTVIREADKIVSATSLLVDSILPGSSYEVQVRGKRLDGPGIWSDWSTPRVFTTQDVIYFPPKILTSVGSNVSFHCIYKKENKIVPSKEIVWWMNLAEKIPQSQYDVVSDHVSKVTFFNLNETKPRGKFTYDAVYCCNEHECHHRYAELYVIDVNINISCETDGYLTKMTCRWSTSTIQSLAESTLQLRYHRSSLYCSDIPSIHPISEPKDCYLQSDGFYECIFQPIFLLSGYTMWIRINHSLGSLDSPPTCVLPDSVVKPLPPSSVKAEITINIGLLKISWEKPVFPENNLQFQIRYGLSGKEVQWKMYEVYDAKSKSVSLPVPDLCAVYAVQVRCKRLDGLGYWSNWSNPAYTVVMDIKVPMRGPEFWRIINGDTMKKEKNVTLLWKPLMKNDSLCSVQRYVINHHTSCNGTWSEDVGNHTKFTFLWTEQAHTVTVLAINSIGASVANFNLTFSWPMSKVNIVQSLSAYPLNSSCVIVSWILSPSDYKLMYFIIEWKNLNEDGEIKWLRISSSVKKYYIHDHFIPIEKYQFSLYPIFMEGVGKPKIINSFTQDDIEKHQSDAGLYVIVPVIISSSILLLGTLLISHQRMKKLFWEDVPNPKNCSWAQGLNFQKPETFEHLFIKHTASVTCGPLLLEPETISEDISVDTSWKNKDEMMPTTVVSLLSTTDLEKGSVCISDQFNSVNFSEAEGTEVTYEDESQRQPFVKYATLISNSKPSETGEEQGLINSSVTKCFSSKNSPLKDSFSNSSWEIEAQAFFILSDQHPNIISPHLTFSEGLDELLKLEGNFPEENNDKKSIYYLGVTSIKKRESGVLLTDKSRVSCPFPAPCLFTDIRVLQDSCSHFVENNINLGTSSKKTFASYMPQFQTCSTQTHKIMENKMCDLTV
Description: cell-based or functional assay.

The target in assay [2] is T2, human LEPR CRH1 (D1,D2,D3)-MMH (human, UniProt P48357 22-427, limits assumed).
T2 construct: domain: CRH1-Ig (D1,D2,D3); Transiently expressed, captured from supernatant on anti-myc beads; also called CRH1-Ig (D1, D2, D3)
T2 sequence (looked up): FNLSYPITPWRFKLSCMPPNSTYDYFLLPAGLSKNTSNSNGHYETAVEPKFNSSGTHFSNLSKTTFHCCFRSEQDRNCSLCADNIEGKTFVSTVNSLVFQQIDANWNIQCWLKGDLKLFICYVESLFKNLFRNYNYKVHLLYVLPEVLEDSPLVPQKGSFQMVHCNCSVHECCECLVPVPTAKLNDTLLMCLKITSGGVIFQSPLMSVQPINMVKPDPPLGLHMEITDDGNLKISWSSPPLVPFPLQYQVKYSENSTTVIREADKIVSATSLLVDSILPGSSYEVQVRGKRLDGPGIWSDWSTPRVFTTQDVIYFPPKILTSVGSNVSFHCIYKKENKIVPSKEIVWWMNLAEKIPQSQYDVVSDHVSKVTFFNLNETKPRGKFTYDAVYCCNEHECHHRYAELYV
The assay can be described thus: Luminex, myc-captured LEPR protein on beads, Ab 0.5 µg/mL. As to the method: (§1) Aliquots of microspheres with immobilized anti-myc monoclonal antibodies, prepared as described above, were added individually to 1 mL of the each of these protein supernatants. The microspheres were gently mixed, incubated for two hours at 25° C., washed twice with 1 mL of DBPS, centrifuged to remove the supernatant and finally resuspended in 1 mL of DPBS buffer. Forty eight μL of anti-myc IgG coupled microspheres from individual reactions with full length human LEPR and with each of the human LEPR domain proteins were withdrawn and mixed together in 3.6 mL of PBS+20 mg/mL BSA+0.05% sodium azide (blocking buffer).
(§2) From this mixed pool, 75 μL of microspheres were plated per well on a 96 well filter plate (Millipore, Cat. No: MSBVN1250) and mixed with 25 μL of individual anti-human LEPR monoclonal antibodies (0.5 or 5 μg/mL), incubated for two hours at 25° C. and then washed twice with 200 μL of DPBS with 0.05% Tween 20 (washing buffer). […] After 30 minutes, the samples were washed twice with 200 μL of washing buffer and resuspended in 150 μL of wash buffer. The Median Fluorescence intensity (MFI) of the microspheres was measured in a Luminex Analyzer.

Assay [3] concerns the target T3, human LEPR CRH1 (D1,D2)-MMH (human, UniProt P48357 22-339, limits assumed).
T3 construct: domain: CRH1 (D1,D2); Transiently expressed, captured from supernatant on anti-myc beads
T3 sequence (looked up): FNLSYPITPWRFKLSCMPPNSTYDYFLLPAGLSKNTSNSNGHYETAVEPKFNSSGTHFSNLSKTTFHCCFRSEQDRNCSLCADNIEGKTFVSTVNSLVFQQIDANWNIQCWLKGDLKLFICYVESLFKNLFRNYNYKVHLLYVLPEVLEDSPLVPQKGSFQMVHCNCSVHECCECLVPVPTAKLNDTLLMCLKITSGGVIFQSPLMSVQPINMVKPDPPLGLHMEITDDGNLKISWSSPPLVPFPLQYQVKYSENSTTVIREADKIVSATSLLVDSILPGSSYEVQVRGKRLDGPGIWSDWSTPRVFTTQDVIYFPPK
The assay is described as above. As to the method:
as §1, §2

The next assay concerns the target T4, human LEPR FNIII-MMH (human, UniProt P48357 636-839, limits assumed).
T4 construct: domain: FNIII; Transiently expressed, captured from supernatant on anti-myc beads
T4 sequence (looked up): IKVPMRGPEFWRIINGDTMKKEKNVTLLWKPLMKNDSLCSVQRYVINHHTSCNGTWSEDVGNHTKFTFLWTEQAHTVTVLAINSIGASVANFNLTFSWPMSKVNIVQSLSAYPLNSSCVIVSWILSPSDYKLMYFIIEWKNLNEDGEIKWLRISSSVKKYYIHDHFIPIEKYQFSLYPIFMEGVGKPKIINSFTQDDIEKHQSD
The assay is described as above. As to the method:
as §1, §2

B1: H4H18440P2 (antibody, human IgG4, V domains shown)
VH: QVQLVESGGGMVKPGGSLRLSCAASGFTFSDYYMSWIRQAPGKGLEWISHISITGSTIYYADSVKGRFTISRDNAKNSLYLEMNRLRDEDTAVYYCTRDEPDIVLVRYGMDVWGQGTTVTVSS
VL: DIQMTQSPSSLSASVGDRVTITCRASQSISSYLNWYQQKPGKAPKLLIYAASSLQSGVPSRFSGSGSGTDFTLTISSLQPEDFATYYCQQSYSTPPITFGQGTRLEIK
notes: H4H prefix: human IgG4 Fc
As for B1, in assay [1], the “% activation, IMR-32/LEPR without human Leptin” value amounted to 4%.

B2: H4H18462P2 (antibody, human IgG4, V domains shown)
VH: EVQLVESGGDLVQPGRSLRLSCAASGFTFSSFAMSWVRQAPGRGLEWVSSLSDSGDNTYYADSVKGRFTISRDNSKNTLYLQMNNLRAEDTAVYYCAKDLFSGWLFHGFDVWGQGTMVTVSS
VL: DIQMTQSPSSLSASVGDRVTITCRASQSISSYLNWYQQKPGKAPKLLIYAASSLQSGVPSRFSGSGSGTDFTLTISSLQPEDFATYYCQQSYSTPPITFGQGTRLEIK
notes: H4H prefix: human IgG4 Fc
For B2, the “Luminex MFI” value in assay [2] is 461 MFI; in assay [3], 665 MFI; with human LEPR FNIII-MMH, 229 MFI.

B3: H4H18457P2 (antibody, human IgG4, V domains shown)
VH: EVQLVESGGSVVRPGESLRLSCAASGFTFDDYGMSWVRQAPGKGLEWVSGISWNGGITVYADSVKGRFTVSRDNAKNSLYLQMNSLRAEDTALYHCARARYGGADYWGQGTLVTVSS
VL: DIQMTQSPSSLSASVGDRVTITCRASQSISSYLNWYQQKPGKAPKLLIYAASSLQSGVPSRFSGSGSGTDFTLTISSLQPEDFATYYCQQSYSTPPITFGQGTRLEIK
notes: H4H prefix: human IgG4 Fc
As to B3, in assay [1], the “% inhibition, IMR-32/LEPR with 200 pM human Leptin” value came out at 100% and the “IC50 (M), IMR-32/LEPR with 200 pM human Leptin” value was determined as 7.23e-10 M.

B4: H4H18464P2 (antibody, human IgG4, V domains shown)
VH: QVQLVQSGPEVKKPGASVKVSCKGSGYTFSWYGISWIRQAPGHGLEWMGWISASSGNTRFAQKVQGRLTMTTDTSTSTAYMELRSLRSDDTAVYYCARTGTRPFDYWGQGTLVTVSS
VL: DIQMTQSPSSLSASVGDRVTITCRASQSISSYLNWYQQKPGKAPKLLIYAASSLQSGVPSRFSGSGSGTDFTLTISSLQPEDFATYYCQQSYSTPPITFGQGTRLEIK
notes: H4H prefix: human IgG4 Fc
B4: in assay [1], the “% activation, IMR-32/LEPR without human Leptin” value is 6%; the “% inhibition, IMR-32/LEPR with 200 pM human Leptin” value stood at 100%; the “EC50 (M), IMR-32/LEPR without human Leptin (STAT3-Luc)” value was 1.3e-10 M; the “IC50 (M), IMR-32/LEPR with 200 pM human Leptin” value was determined as 2.9e-09 M.

The values above are taken from US20200123264A1 (Regeneron, published 2020).
